# The supplement of paper PMC9112550, “Optimization of the antimicrobial peptide Bac7 by deep mutational scanning” (BMC Biology, 2022)
# Test system: Escherichia coli TOP10
# Test: shrunken log2 fold change of peptide-encoding DNA abundance (4.5 h post-induction vs induction); higher = less antimicrobial activity (less host growth inhibition)
# Details: time post-induction: 4.5 h; library: site-saturation at positions 5, 18, 19, 20
# 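Also: peptides expressed intracellularly from a pBAD plasmid library in pooled LB shake-flask culture, induced with 0.3% L-arabinose, DNA abundance read by NGS, three biological replicates, DESeq2 with apeglm shrinkage.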
row,Sequence,shrunken log2 fold change
1,RRIRYRPPRLPRPRPRPKRWPRP,0.165
2,RRIRCRPPRLPRPRPRPNQNPRP,-0.437
3,RRIRYRPPRLPRPRPRPEATPRP,0.28
4,RRIRWRPPRLPRPRPRPRHNPRP,0.576
5,RRIRPRPPRLPRPRPRPQGCPRP,-0.0849
6,RRIRTRPPRLPRPRPRPCIRPRP,-0.0289
7,RRIRFRPPRLPRPRPRPASHPRP,0.0492
8,RRIRGRPPRLPRPRPRPGEWPRP,-0.0156
9,RRIRARPPRLPRPRPRPHNCPRP,-0.162
10,RRIRGRPPRLPRPRPRPLYNPRP,-0.247
11,RRIRARPPRLPRPRPRPRCYPRP,0.0779
12,RRIRRRPPRLPRPRPRPNVAPRP,0.304
13,RRIRRRPPRLPRPRPRPRCCPRP,0.43
14,RRIRNRPPRLPRPRPRPDKFPRP,-0.188
15,RRIRYRPPRLPRPRPRPTNCPRP,-1.27
16,RRIRERPPRLPRPRPRPIRVPRP,-0.679
17,RRIRCRPPRLPRPRPRPSKYPRP,-0.635
18,RRIRGRPPRLPRPRPRPIHMPRP,-0.0548
19,RRIRIRPPRLPRPRPRPWLAPRP,-0.12
20,RRIRFRPPRLPRPRPRPQTAPRP,-0.337
21,RRIRYRPPRLPRPRPRPMLYPRP,-0.877
22,RRIRMRPPRLPRPRPRPLHKPRP,0.301
23,RRIRSRPPRLPRPRPRPSRLPRP,-0.0299
24,RRIRCRPPRLPRPRPRPTAEPRP,0.363
25,RRIRIRPPRLPRPRPRPYILPRP,-0.463

row,Sequence,shrunken log2 fold change
1,RRIRCRPPRLPRPRPRPGWYPRP,-0.244
2,RRIRERPPRLPRPRPRPMHMPRP,-0.000687
3,RRIRQRPPRLPRPRPRPTIVPRP,-0.119
4,RRIRSRPPRLPRPRPRPHSGPRP,0.0329
5,RRIRMRPPRLPRPRPRPRWWPRP,1.11
6,RRIRWRPPRLPRPRPRPIEFPRP,-0.0119
7,RRIRLRPPRLPRPRPRPHGRPRP,0.114
8,RRIRHRPPRLPRPRPRPHILPRP,-0.084
9,RRIRDRPPRLPRPRPRPLANPRP,0.861
10,RRIRCRPPRLPRPRPRPAGMPRP,0.104
11,RRIRIRPPRLPRPRPRPGIHPRP,-0.31
12,RRIRHRPPRLPRPRPRPCGFPRP,0.134
13,RRIRTRPPRLPRPRPRPQYYPRP,-0.266
14,RRIRWRPPRLPRPRPRPDPCPRP,-0.026
15,RRIRSRPPRLPRPRPRPEKIPRP,-0.0469
16,RRIRGRPPRLPRPRPRPIYTPRP,0.173
17,RRIRWRPPRLPRPRPRPPWCPRP,0.183
18,RRIRCRPPRLPRPRPRPWPAPRP,0.375
19,RRIRIRPPRLPRPRPRPMGSPRP,-0.0432
20,RRIRVRPPRLPRPRPRPEEPPRP,0.0911
21,RRIRERPPRLPRPRPRPNIIPRP,-0.338
22,RRIRVRPPRLPRPRPRPNWPPRP,0.282
23,RRIRMRPPRLPRPRPRPKCMPRP,0.745
24,RRIRFRPPRLPRPRPRPIRVPRP,0.0245
25,RRIRPRPPRLPRPRPRPWVTPRP,-0.00388
